The record followed here is paper PMC5772350.

The target in test [1] is B5-GS3K (anti-CEA sdAb with C-terminal positively charged tail). Put plainly: SPR.
Test [2] has as its target B5-Rhiz (anti-CEA sdAb fused C-terminally to rhizavidin). Put plainly: SPR. On the technique in general: SPR reads the build-up and loss of mass on a sensor chip optically.

Substance “Carcinoembryonic antigen (CEA) (from UniProt P06731 35-685) (natural protein)” yielded an Activity (%) in test [1] of 14.3%. In test [2], the Activity (%) stood at 5% and the XA (RU), SPR response to 100 nM CEA turned out to be 839 RU.
